# Experimental data: patent publication US20230338423A1 (published 2023)
# T1: V5-SUSD2 (human SUSD2, V5-tagged) (human, UniProt Q9UGT4 28-822)
# T1 construct: Overexpressed in 293T cells or Jurkat T cells; also called SUSD2^WT; not shown: V5 and His tag
# T1 sequence: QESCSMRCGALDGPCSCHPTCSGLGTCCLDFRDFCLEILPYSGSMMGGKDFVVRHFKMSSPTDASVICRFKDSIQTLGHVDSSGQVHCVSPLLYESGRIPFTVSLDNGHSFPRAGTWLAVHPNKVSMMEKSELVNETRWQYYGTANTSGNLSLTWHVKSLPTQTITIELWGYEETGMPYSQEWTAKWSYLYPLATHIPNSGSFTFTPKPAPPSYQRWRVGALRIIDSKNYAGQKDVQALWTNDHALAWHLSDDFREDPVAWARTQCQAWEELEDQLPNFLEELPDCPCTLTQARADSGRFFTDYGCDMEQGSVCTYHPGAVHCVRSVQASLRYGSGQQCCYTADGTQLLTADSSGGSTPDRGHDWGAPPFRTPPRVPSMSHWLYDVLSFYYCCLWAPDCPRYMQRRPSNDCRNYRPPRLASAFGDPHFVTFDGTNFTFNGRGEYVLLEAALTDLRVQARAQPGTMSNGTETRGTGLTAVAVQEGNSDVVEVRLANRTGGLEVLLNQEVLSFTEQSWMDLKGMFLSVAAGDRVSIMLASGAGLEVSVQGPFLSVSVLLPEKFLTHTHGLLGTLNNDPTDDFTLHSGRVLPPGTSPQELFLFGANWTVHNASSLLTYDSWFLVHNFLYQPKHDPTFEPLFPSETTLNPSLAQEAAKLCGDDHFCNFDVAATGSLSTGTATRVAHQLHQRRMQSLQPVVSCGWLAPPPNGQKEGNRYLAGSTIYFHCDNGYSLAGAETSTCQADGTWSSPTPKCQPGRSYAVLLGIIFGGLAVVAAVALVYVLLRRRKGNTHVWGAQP
# T2: V5-tagged mouse Susd2 (mouse, UniProt Q9DBX3 23-820)
# T2 construct: Retrovirally expressed in Susd2-/- OT-I T cells and precipitated from RIPA lysates with anti-V5 agarose; also called V5-Susd2; pMIG II-Susd2; not shown: V5 and His tag
# T2 sequence: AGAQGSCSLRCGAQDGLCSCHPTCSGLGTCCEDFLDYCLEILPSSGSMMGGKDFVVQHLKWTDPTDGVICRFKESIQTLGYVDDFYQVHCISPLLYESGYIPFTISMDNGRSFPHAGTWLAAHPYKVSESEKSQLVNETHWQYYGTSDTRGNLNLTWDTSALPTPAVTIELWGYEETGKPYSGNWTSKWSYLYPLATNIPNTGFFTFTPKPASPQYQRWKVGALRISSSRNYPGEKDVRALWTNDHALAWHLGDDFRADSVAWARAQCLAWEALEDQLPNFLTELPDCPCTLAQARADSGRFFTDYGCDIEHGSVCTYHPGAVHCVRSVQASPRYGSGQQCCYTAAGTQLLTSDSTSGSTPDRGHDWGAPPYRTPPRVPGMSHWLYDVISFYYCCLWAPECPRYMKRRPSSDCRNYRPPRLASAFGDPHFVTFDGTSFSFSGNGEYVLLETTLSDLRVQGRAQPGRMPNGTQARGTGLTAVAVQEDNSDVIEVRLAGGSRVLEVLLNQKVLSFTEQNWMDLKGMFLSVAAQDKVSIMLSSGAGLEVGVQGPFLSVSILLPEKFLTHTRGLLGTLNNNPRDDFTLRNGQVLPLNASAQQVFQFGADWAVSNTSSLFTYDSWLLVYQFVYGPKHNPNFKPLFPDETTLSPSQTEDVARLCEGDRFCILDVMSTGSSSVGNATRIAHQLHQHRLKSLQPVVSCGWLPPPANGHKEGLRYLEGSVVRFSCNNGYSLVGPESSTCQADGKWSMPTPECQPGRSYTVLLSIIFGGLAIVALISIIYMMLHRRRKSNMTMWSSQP
# Experiments:
# [1] = biological target: T1, V5-SUSD2 (human SUSD2, V5-tagged); experiment: anti-V5 immunoprecipitation and immunoblot, Jurkat T cells
# Procedure: (§1) Immunoprecipitation and immunoblotting. For immunoprecipitation, cells were lysed in RIPA buffer supplemented with cOmplete™ Protease Inhibitor Cocktail (Sigma-Aldrich). […] Samples were washed 5 times with cold RIPA buffer. To elute proteins from the beads, samples were incubated with 30 μl of SDS sample buffer at 95° C. for 10 minutes. Protein content in the supernatant was analyzed by immunoblotting. For immunoblotting, electrophoresis of protein was performed by using the NuPAGE system (Invitrogen) according to the manufacturer's protocol. Briefly, cultured CD8⁺ T cells or Jurkat cells were collected and lysed with RIPA buffer. Proteins were separated on a NuPAGE precast gel and were transferred onto nitrocellulose membranes (Bio-Rad). Appropriate primary antibodies and HRP-conjugated secondary antibodies were used and proteins were detected using the Enhanced Chemiluminescent (ECL) reagent (Thermo Fisher Scientific).
# [2] = biological target: T2, V5-tagged mouse Susd2; experiment: anti-V5 immunoprecipitation and immunoblot, Susd2-reconstituted Susd2-/- OT-I T cells
# Procedure: as §1
binding result [1],binding result [2],Binder
binds,,"endogenous IL-2Rα in human Jurkat T cells (receptor, UniProt P01589 22-272, looked up, whole, on cells; Endogenous protein, pulled down from Jurkat lysate) ELCDDDPPEIPHATFKAMAYKEGTMLNCECKRGFRRIKSGSLYMLCTGNSSHSSWDNQCQCTSSATRNTTKQVTPQPEEQKERKTTEMQSPMQPVDQASLPGHCREPPPWENEATERIYHFVVGQMVYYQCVQGYRALHRGPAESVCKMTHGKTRWTQPQLICTGEMETSQFPGEEKPQASPEGRPESETSCLVTTTDFQIQTEMAATMETSIFTTEYQVAVAGCVFLLISVLLLSGLTWQRRQRKSRRTI"
,no binding,"mouse IL-15Rα (endogenous, OT-I T cells) (receptor, UniProt Q60819 33-263, looked up, whole, on cells; Endogenous, probed by immunoblot in Susd2 precipitates) GTTCPPPVSIEHADIRVKNYSVNSRERYVCNSGFKRKAGTSTLIECVINKNTNVAHWTTPSLKCIRDPSLAHYSPVPTVVTPKVTSQPESPSPSAKEPEAFSPKSDTAMTTETAIMPGSRLTPSQTTSAGTTGTGSHKSSRAPSLAATMTLEPTASTSLRITEISPHSSKMTKVAISTSVLLVGAGVVMAFLAWYIKSRQPSQPCRVEVETMETVPMTVRASSKEDEDTGA"
,no binding,"mouse IL-2Rβ (endogenous, OT-I T cells) (receptor, UniProt P16297 27-539, looked up, whole, on cells; Endogenous, probed by immunoblot in Susd2 precipitates; also called CD122) AVKNCSHLECFYNSRANVSCMWSHEEALNVTTCHVHAKSNLRHWNKTCELTLVRQASWACNLILGSFPESQSLTSVDLLDINVVCWEEKGWRRVKTCDFHPFDNLRLVAPHSLQVLHIDTQRCNISWKVSQVSHYIEPYLEFEARRRLLGHSWEDASVLSLKQRQQWLFLEMLIPSTSYEVQVRVKAQRNNTGTWSPWSQPLTFRTRPADPMKEILPMSWLRYLLLVLGCFSGFFSCVYILVKCRYLGPWLKTVLKCHIPDPSEFFSQLSSQHGGDLQKWLSSPVPLSFFSPSGPAPEISPLEVLDGDSKAVQLLLLQKDSAPLPSPSGHSQASCFTNQGYFFFHLPNALEIESCQVYFTYDPCVEEEVEEDGSRLPEGSPHPPLLPLAGEQDDYCAFPPRDDLLLFSPSLSTPNTAYGGSRAPEERSPLSLHEGLPSLASRDLMGLQRPLERMPEGDGEGLSANSSGEQASVPEGNLHGQDQDRGQGPILTLNTDAYLSLQELQAQDSVHLI"
,no binding,"mouse common γ chain (endogenous, OT-I T cells) (receptor, UniProt P34902 23-369, looked up, whole, on cells; Endogenous, probed by immunoblot in Susd2 precipitates; also called common 7 chain) WSSKVLMSSANEDIKADLILTSTAPEHLSAPTLPLPEVQCFVFNIEYMNCTWNSSSEPQATNLTLHYRYKVSDNNTFQECSHYLFSKEITSGCQIQKEDIQLYQTFVVQLQDPQKPQRRAVQKLNLQNLVIPRAPENLTLSNLSESQLELRWKSRHIKERCLQYLVQYRSNRDRSWTELIVNHEPRFSLPSVDELKRYTFRVRSRYNPICGSSQQWSKWSQPVHWGSHTVEENPSLFALEAVLIPVGTMGLIITLIFVYCWLERMPPIPPIKNLEDLVTEYQGNFSAWSGVSKGLTESLQPDYSERFCHVSEIPPKGGALGEGPGGSPCSLHSPYWPPPCYSLKPEA"
